Experimental data published in patent US20190390248.
Read-outs that look alike come from different tables or passages of the source.

B1: notecarin from Notechis scutatus venom (protein)
chain: SNSLFEEIRPGNIERECIEEKCSKEEAREVFEDNEKTETFWNVYVDGDQCSSNPCHYRGTCKDGIGSYTCTCLPNYEGKNCEKVLFKSCRAFNGNCWHFCKRVQSETQCSCAESYLLGVDGHSCVAEGDFSCGRNIKARNKREASLPDFVQSQKATVLKKSDNPSPDIRIVNGMDCKLGECPWQAVLINEKGEVFCGGTILSPIHVLTAAHCINQTKSVSVIVGEIDISRKETRRLLSVDKIYVHKKFVPPNSYYQNIDRFAYDYDIAIIRMKTPIQFSENVVPACLPTADFAKEVLMKQDSGIVSGFGRTQSIGYTSNILKVITVPYVDRHTCMLSSNFRITQNMFCAGYDTLPQDACQGDSGGPHITAYGDTHFVTGIISWGEGCARKGKYGVYTKVSNFIPWIKKIMSLK
B2: OsPA (prothrombin activator purified from Oxyuranus scutellatus venom) (protein)
chain 1: AQLREYRLAAQLEDWDYNPQPEELSRLSESDLTFKKIVYREYELDFKQEKPRDELSGLLGPTLRGEVGDSLIIYFKNFATQPVSIHPQSAVYNKWSEGSSYSDGTSDVERLDDAVPPGQSFKYVWNITAEIGPKKADPPCLTYAYYSHVNMVRDFNSGLIGALLICKEGSLNADGAQKFFNREYVLMFSVFDESKNWYRKPSLQYTINGFANGTLPDVQACAYDHISWHLIGMSSSPEIFSVHFNGQTLEQNHYKVSTINLVGGASVTANMSVSRTGKWLISSLVAKHLQAGMYGYLNIKDCGNPDTLTRKLSFRERRRIMKWEYFIAAEEITWDYAPEIPSSVDRRYKAQYLDNFSNFIGKKYKKAVFRQYEDSNFTKPTYAIWPKERGILGPVIKAKVRDTVTIVFKNLASRPYSIYVHGVSVSKDAEGAVYPSDPKENITHGKAVEPGQVYTYKWTVLDTDEPTVKDSECITKLYHSAVDMTRDIASGLIGPPLVCKRKALSIRGVQNKADVEQHAVFAVFDENKSWYLEDNIKKYCSNPSSVKKDDPKFYKSNVMYTLNGYASDRTEVWGFHQSEVVEWHLTSVGTVDEIVPVHLSGHTFLSKGKHQDILNLFPMSGESATVTMDNLGTWLLSSWGSCEMSNGMRLRFLDANYDDEDEGNEEEEEDDGDIFADIFNPPEVVIKKEEVPVNFVPDPESDALAKELGLFDDEDNPKQSRSEQTEDDEEQLMIASMLGLRSFKGSVAEEELKHTALALEEDAHASDPRIDSNSAHNSDDIAGRYLRTINRRNKRRYYIAAEEVLWDYSPIGKSQVRSLPAKTTFKKAIFRSYLDDTFQTPSTGGEYEKHLGILGPIIRAEVDDVIEVQFRNLASRPYSLHAHGLLYEKSSEGRSYDDNSPELFKKDDAIMPNGTYTYVWQVPPRSGPTDNTEKCKSWAYYSGVNPEKDIHSGLIGPILICQKGMIDKYNRTIDIREFVLFFMVFDEEKSWYFPKSDKSTCEEKLIGVQSRHTFPAINGIPYQLQGLMMYKDENVHWHLLNMGGPKDVHVVNFHGQTFTEEGREDNQLGVLPLLPGTFASIKMKPSKIGTWLLETEVGENQERGMQALFTVIDKDCKLPMGLASGIIQDSQISASGHVGYWEPKLARLNNTGMFNAWSIIKKEHEHPWIQIDLQRQVVITGIQTQGTVQLLKHSYTVEYFVTYSKDGQNWITFKGRHSKTQMHFEGNSDGTTVKENHIDPPIIARYIRLHPTKFYNTPTFRIELLGCEVEGCSVPLGMESGAIKDSEITASSYKKTWWSSWEPFLARLNLKGRTNAWQPKVNNKDQWLQIDLQHLTKITSIITQGATSMTTSMYVKTFSIHYTDDNSTWKPYLDVRTSMEKVFTGNINSDGHVKHFFNPPILSRFIRIIPKTWNQYIALRIELFGCEVF
chain 2: ANSLYEEFRSGNIERECIEERCSKEEAREVFEDDEKTETFWNVYVDGDQCSSNPCHYRGTCKDGIGSYTCTCLSGYEGKNCERVLYKSCRVDNGNCWHFCKPVQNDIQCSCAEGYLLGEDGHSCVAGGNFSCGRNIKTRNKREASLPDFVQSQNAILLKKSDNPSPDIRIVNGMDCKLGECPWQAVLVDEKEDAFCGGTILSPIYVLTAAHCINQTKMISVVVGEINISRKNPGRLLSVDKIYVHQKFVPPKKGYEFYEKFDLVSYDYDIAILQMKTPIQFSENVVPACLPTADFANQVLMKQDFGIVSGFGRIFEKGPQSKTLKVLKVPYVDRHTCMLSSESPITPTMFCAGYDTLPRDACQGDSGGPHITAYRDTHFITGIVSWGEGCAQTGKYGVYTKVSKFILWIKRIMRQKLPSTESSTGRL
B3: ecarin from Echis carinatus venom (protein)
chain: IILGSGNVNDYEVVYPQKVTALPKGAVQQPEQKYEDAMQYEFEVKGEPVVHLEKNKELFSEDYSETHYSSDDREITTNPSVEDHCYYHGRIQNDAESTASISACNGLKGHFKLRGETYFIEPLKIPDSEHAVYKYENIENEDEAPKMCGVTQDNWESDEPIKKTLGLIVPPHERKFEKKFIELVVVVDHSMVTKYNNDSTAIRTWIYELNTVNEIYLPFNIRVALVGLEFWCNGDLINVTSTADDTLHSFGEWRASDLLNRKRHDHAQLLTNVTLDHSTLGITFVYGCKSDRSVELILDYSNITFNMAYIIAHEMGHSLGMLHDTKFCTCGAKPCIMFGKESIPPPKEFSSCSYDQYNKYLLKYNPCILDPPLRKDIASPAVCGNEIWEEGEECDCGSPADCRNPCCDAATCKLKPGAECGNGECCDKCKIRKAGTECRPARDDCVAEHCTGQSAECPRNEFQRNGQPCLNNSGYCYNGDCPIMLNQCIALFSPSATVAQDSCFQRNLQGSYYGYCTKEIGYYGRFPCAPQDVKCGRLYCLDNSFKKNMRCKNDYSYADENKGIVEPGTKCEDGKVCINRKCVDVNTAY

Target: human prothrombin, P00734
[1] = scale: nmol thrombin/mL/min/µmol prothrombin/µmol activator

Protein	N-terminal sequencing of SDS-PAGE bands	percent of S-2238 hydrolysed by the thrombin formed	Thrombin generation rate [1]	fold more effective than carinactivase-1 (activation rate constants)	fold more effective than carinactivase-2 (activation rate constants)	fold more effective than ecarin (activation rate constants)	fold more effective than notecarin (activation rate constants)	Thrombin generation rate
B1	confirmed conversion of prothrombin to alpha-thrombin by PtPA and notecarin	then carinactivase-1 and lastly notecarin (<1%) being the least efficient	0.043					
B2			44	more than 200 times then carinactivase-1	more than 20 times more effective than ecarin and carinactivase-2	more than 20 times more effective than ecarin and carinactivase-2	approximately 1000 times more effective than notecarin	
B3								2.76
